Test results taken from patent US20190185565A1 (DEUTSCHES ZENTRUM FUR NEURODEGENERATIVE ERKRANKUNG EV, published 2019).

T1: human wild-type TREM2 (membrane bound, isoform 1) stably overexpressed on HEK293 Flp-In cells (human)
T1 chain: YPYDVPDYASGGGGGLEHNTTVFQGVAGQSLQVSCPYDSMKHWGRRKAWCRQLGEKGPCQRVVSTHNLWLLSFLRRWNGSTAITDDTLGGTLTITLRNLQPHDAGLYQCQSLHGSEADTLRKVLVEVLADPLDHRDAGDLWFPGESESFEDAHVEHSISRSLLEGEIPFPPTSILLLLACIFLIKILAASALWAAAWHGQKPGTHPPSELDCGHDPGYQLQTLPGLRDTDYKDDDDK


Biological target: T1, human wild-type TREM2 (membrane bound, …)
Experiment: cell-based or functional assay

increase of mature TREM2 in the membrane fraction (quantified immunoblot, normalized to immature TREM2) [fold]	Binder
≤ 5	antibody clone 14D3 (antibody, V domains shown) VH: EVKLLEFGGGLVQPGGSMRLSCAASGFTFTDFYMNWIRQPAGRAPEWLGLIRNKTKGYTTEYNRSVKGRFTISRDNTQNMLYLQMNSLRPEDTATYYCARIGVNNGGSLDYWGQGVMVTVSS VL: DILIIQSPASLTVSAGARVTMSCKSSQSLLYSENNQDYLAWYQQKPGQFPKLLIYGASNRHTGVPDRFTGSGSGTDFTLTISSVQAEDLADYYCEQTYSYPYTFGAGTKLELK

Biological target: T1, human wild-type TREM2 (membrane bound, …)
Experiment: immunofluorescence on live HEK293 Flp-In cells expressing human full-length TREM2 against empty-vector cells; hybridoma supernatant diluted 1:2
Experimental: TREM2-reactive supernatants were subsequently screened for their ability to detect TREM2 on the cell surface of HEK293 Flp-In cells stably overexpressing human wild-type TREM2 (Kleinberger et al. 2014). HEK293 Flp-In cells either expressing human full-length TREM2 or empty vector (=control) were cultured in 96-well tissue culture plates, washed twice with PBS, blocked with 2% bovine serum albumin (BSA) in PBS and incubated with the respective TREM2-reactive supernatants (diluted 1:2 in blocking buffer) for 60 minutes on ice. Cells were subsequently washed three times with PBS, fixed with 4% paraformaldehyde for 20 min on room temperature and washed three times with PBS. Binding of TREM2-reactive supernatants was visualized using isotype-specific mouse-anti rat secondary antibodies followed by incubation with a goat anti-mouse tertiary antibody coupled to Alexa-488 (Life Technologies). 4′, 6-diamidino-2-phenylindol (Dapi, Life Technologies) was used as a nuclear counterstain. Images were acquired automatically using a Cytation multi-detection reader (Biotek).

binding result	Binder
binds	antibody clone 8A11 (antibody, V domains shown, Rat monoclonal IgG from a hybridoma) VH: EVKLLESGGGLVQPGGSMRLSCAASGFTFTDFYMNWIRQPAGKAPEWLGLIRNKTKGYTTEYNTSVKGRFTISRDNTQNMLYLQMNSLRPEDTATYYCARIGVNNGGSLDYWGQGVMVTVSS VL: DILIIQSPASLTVSAGARVTMSCKSSQSLLYSENNQDYLAWYQQKPGQFPKLLIYGASNRHTGVPDRFTGSGSGTDFTLTISSVQAEDLADYYCEQTYSYPYTFGAGTKLELK
binds	antibody clone 21A3 (antibody, V domains shown, Rat monoclonal IgG from a hybridoma) VH: EVKLLESGGGLVQPGGSMRLSCAASGFTFTDFYMNWIRQPAGKAPEWLGLIRNKANGYTTQYNPSVKGRFTISRDNTQNMLYLQMNTLRGEDTATYYCARIGINNGGSLDYWGQGVMVTVSS VL: DILINQSPASLTVSAGEKVTMSCKSSQSLLYSEKNQDYLAWYQQKPGQSPKLLMYGASYRHTGVPDRFTGSGSGTDFTLTISSVQAEDLADYYCEQTYSYPYTFGAGTKLELK
binds	antibody clone 1G6 (antibody, V domains shown, Rat monoclonal IgG from a hybridoma) VH: EVKLLESGGGLVQPGGSLRLSCVASGFTFTDFYMNWIRQPAGKAPEWLGLIRNKANGFTTEYNPSVKGRFTISRDNTQHMLYLQMNTLRAEDTATYYCARIGINNGGSLDYWGQGVMVTVSS VL: DILINQSPASLTVSTGEKVTMSCKSSQSLLYSENKQDYLAWYQQKPGQFPKLLIYGASNRHTGVPDRFTGSGSGTDFTLTINIVQAEDLADYYCEQTYSYPYTFGAGTKLELK
binds	antibody clone 7A12 (antibody, V domains shown, Rat monoclonal IgG from a hybridoma) VH: EVKLLESGGGLVQPGGSMRLSCAASGFTFTDFYMNWIRQPAGKAPEWLGLIRNKANGYTTQYNPSVKGRFTISRDNTQNMLYLQMNTLRGEDTATYYCARIGINNGGSLDYWGQGVMVTVSS VL: DILINQSPASLTVSAGEKVTMSCKSSQSLLYSEKNQDYLAWYQQKPGQSPKLLMYGASYRHTGVPDRFTGSGSGTDFTLTISSVQAEDLADYYCEQTYSYPYTFGAGTKLELK
binds	antibody clone 10C3 (antibody, V domains shown, Rat monoclonal IgG from a hybridoma) VH: EVKLLESGGGLVQPGGSMRLSCAASGFTFTDFYMNWIRQPAGETPEWLGLIRNKTKGYTTEYNPSVKGRFTISRDNTQNMLYLQMNSLRPEDTATYYCARIGTNNGGSLDYWGQGVMVTVSS VL: DILIIQSPASLTVSAGARVTMSCKSSQSLLYSENNQDYLAWYQQKPGQFPKLLIYGASNRHTGVPDRFTGSGSGTDFTLTISSVQAEDLADYYCEQTYSYPYTFGAGTKLELK
binds	antibody clone 14D8 (antibody, V domains shown, Rat monoclonal IgG from a hybridoma) VH: EVKLLESGGGLVQPGGSMRLSCAASGFTFTDFYMNWIRQPAGKAPEWLGLIRNKANGYTTVYNPSVKGRFTISRDNTQNMLYLQMNTLRGEDTATYYCARIGINNGGSLDYWGQGVMVTVSS VL: DILINQSPASLTVSTGEKVTMSCRSSQSLLYSEKNQDYLAWYQQKPGQFPKLLIYGASYRHTGVPDRFTGSGSGTDFTLTISSVQAEDLADYYCEQTYSYPYTFGAGTKLELK
binds	antibody clone 15C5 (antibody, V domains shown, Rat monoclonal IgG from a hybridoma) VH: EVKLLESGGGLVQPGGSMRLSCAASGFTFTDFYMNWIRQPAGKAPEWLGLIRNKAYGYTTEYNPSVKGRFTISRDNTQDMLYLQMNTLRAEDTATYYCARIGINYGGSLDYWGQGVMVTVSS VL: DILINQSPASLTVSAGEKVTVSCKSSQSLLYSESNQDYLAWYQQKPGQFPKLLIYGASYRHTGVPDRFTGSGSGTDFTLTISSVQAEDLAHYYCEQTYSYPYTFGAGTKLELK
binds	antibody clone 18F9 (antibody, V domains shown, Rat monoclonal IgG from a hybridoma) VH: EVKLLESGGGLVQPGGSMRLSCVVSGFTFTDFYMNWIRQAAGKAPEWLGLIRNKVNGYRTEYNPSVKGRFTISRDNIQNMLYLQMNTLRAEDTATYYCARIGINNGGSLDYWGQGVMVTVSS VL: DILINQSPASLTVSAGEKVTMSCKSSQSLLYSENNQDYLAWYQQKPGQFPKLLIYGASNRHTGVPDRFTGSGSGTDFTLTISSVQAEDLADYYCEQTYSYPYTFGAGTKLELK
